Assay [1] addresses T1, Human ROBO2 overexpressed on HEK293 cells (human, UniProt Q9HCK4 22-1378).
T1 construct: also called ROBO2 cells; native ROBO2
T1 sequence: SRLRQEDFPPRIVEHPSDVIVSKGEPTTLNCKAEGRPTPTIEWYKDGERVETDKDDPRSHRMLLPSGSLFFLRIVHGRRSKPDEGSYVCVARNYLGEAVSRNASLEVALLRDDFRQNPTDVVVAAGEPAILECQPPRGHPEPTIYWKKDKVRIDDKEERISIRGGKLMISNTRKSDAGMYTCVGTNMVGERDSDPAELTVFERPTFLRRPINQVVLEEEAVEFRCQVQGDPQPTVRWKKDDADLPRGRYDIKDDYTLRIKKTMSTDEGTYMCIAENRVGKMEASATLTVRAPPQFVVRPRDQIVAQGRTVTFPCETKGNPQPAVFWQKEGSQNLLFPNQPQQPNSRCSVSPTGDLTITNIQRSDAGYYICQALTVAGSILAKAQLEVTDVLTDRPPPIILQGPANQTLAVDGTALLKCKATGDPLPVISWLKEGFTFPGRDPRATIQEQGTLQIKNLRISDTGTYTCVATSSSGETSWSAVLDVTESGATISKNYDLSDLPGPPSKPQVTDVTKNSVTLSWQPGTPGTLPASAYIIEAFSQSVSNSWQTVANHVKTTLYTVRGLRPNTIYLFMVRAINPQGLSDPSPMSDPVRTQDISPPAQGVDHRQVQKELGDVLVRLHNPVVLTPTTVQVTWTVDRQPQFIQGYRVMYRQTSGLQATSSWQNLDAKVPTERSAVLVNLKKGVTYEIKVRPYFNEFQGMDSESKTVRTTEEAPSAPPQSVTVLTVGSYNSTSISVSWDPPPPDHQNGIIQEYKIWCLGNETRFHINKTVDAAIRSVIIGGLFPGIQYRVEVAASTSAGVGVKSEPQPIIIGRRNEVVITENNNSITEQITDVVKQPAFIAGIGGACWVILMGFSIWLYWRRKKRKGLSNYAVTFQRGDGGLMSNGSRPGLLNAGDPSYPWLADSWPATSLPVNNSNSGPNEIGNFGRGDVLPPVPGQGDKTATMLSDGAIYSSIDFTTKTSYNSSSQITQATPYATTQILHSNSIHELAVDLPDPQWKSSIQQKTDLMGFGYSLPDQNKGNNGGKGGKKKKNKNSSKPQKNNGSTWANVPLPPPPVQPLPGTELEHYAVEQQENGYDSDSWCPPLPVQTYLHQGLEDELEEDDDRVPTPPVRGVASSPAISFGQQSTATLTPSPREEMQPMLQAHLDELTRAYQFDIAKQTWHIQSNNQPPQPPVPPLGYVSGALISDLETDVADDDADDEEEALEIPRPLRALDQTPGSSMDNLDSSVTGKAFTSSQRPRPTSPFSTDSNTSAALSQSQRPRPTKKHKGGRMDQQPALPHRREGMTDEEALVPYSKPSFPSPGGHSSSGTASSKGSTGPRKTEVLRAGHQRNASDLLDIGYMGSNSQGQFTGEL
Put plainly: flow cytometry, Geo MFI ROBO2/ROBO1 HEK293 cells, 0.1 µg/ml. In general terms: A flow cytometer gives signals particle by particle.

In assay [2] the target is T2, Terbium (Tb) labeled-SNAP tagged ROBO2 expressed on HEK293 cells (Homo sapiens (Human), UniProt Q9HCK4 22-1378, terbium label on the SNAP tag).
T2 construct: also called Tb-labeled ROBO2 cells; ROBO2 expressing cells; not shown: SNAP tag
T2 sequence: T1 sequence
The experiment in a line: HTRF competition on ROBO2 expressing cells; blocked ligand SLIT2-N; 11 points up to 10^2 nM, another dilution series than that of Table 2.

Assay [3] has as its target T3, Human ROBO2 Ig1-Ig2-His (human, UniProt Q9HCK4 31-220).
T3 construct: the His tag is named only in the SPR paragraphs; the Octet and ELISA paragraphs print 'ROBO2 Ig1-Ig2' without a tag; also called ROBO2 Ig1-2; Human ROBO2 Ig 1,2
T3 sequence: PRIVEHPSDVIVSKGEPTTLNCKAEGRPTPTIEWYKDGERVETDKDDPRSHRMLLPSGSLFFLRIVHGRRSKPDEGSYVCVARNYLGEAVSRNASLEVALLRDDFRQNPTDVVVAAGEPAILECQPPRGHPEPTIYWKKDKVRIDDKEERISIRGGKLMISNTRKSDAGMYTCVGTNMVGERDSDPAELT
Put plainly: SPR, antibody on CM5 chip, ROBO2 Ig1-Ig2-His. In general terms: In SPR one partner is held on a chip, and binding of the other changes the refractive index at the surface.

Assay [4] has as its target T3, Human ROBO2 Ig1-Ig2-His. Put plainly: Octet and SPR, against the parental antibody. A general note: Biolayer interferometry detects binding as a change in optical thickness at a sensor tip.

The record followed here is US20200157212A1 (Pfizer, published 2020).

Numbering of substitutions follows the chain as printed.

B1: 93H2 (antibody, human IgG1, kappa, V domains shown)
VH: EVQLVQSGAEVKKPGASVKVSCKASGYTFTGYYMHWVRQAPGQGLEWMGWINPNSGATNFPQKFQGRVTMTRDTSITTAYMDLSRLRSDDTAVYYCARESGDDAFDIWGQGTMVTVSS
VL: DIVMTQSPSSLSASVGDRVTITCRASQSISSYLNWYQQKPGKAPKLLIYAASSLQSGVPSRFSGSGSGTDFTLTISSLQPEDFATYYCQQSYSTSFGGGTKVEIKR
notes: also called parental 93H2; 93H2 mAb
As for B1, in assay [1], the “Fold Selectivity for ROBO2/ROBO1” value is greater than 100 fold.

B2: Abcs35 (antibody, human IgG1, kappa)
heavy: EVQLVQSGAEVKKPGASVKVSCKASGYTFTGYYMHWVRQAPGQGLEWMGWINPKNGDTEFPQKFQGRVTMTRDTSITTAYMDLSRLRSDDTAVYYCARESGDDAFDIWGQGTMVTVSSASTKGPSVFPLAPSSKSTSGGTAALGCLVKDYFPEPVTVSWNSGALTSGVHTFPAVLQSSGLYSLSSVVTVPSSSLGTQTYICNVNHKPSNTKVDKKVEPKSCDKTHTCPPCPAPEAAGAPSVFLFPPKPKDTLMISRTPEVTCVVVDVSHEDPEVKFNWYVDGVEVHNAKTKPREEQYNSTYRVVSVLTVLHQDWLNGKEYKCKVSNKALPAPIEKTISKAKGQPREPQVYTLPPSREEMTKNQVSLTCLVKGFYPSDIAVEWESNGQPENNYKTTPPVLDSDGSFFLYSKLTVDKSRWQQGNVFSCSVMHEALHNHYTQKSLSLSPGK
light: DIVMTQSPSSLSASVGDRVTITCRASQSISSYLNWYQQKPGKAPKLLIYAASSLQSGVPSRFSGSGSGTDFTLTISSLQPEDFATYYCQQSVGLFFGGGTKVEIKRTVAAPSVFIFPPSDEQLKSGTASVVCLLNNFYPREAKVQWKVDNALQSGNSQESVTEQDSKDSTYSLSSTLTLSKADYEKHKVYACEVTHQGLSSPVTKSFNRGEC
notes: fully human IgG1; VH of Ab96 with VL of Ab123
For the molecule B2, the “IC50 (read off the curve)” value in assay [2] was roughly 0.05 nM. In addition, binding in the assay with Human ROBO2 Ig1-Ig2-His [3] was characterised by a dissociation constant (Kd) of 0.0857 nM. In addition, the fold affinity improvement with Human ROBO2 Ig1-Ig2-His [4] is roughly 300 fold.

B3: Abcs35-J (antibody, human IgG1, kappa)
heavy: B2 heavy with D82E
light: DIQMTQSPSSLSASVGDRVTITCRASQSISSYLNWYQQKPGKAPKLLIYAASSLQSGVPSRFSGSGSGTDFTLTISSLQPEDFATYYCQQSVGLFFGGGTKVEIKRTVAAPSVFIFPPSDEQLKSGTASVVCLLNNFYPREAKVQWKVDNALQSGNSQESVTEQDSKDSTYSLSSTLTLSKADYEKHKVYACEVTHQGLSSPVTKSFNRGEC
notes: germlined variant of Abcs35; also called ABCS-J
With B3, the Kd with Human ROBO2 Ig1-Ig2-His [3] was found to be 0.0939 nM.

By Kd is commonly meant a measure of binding affinity in units of concentration.
